Results: paper PMC3098157

What was measured:
[1] = target: FLAG-tagged LEDGF/p75 WT (UniProt O75475)
[2] = target: FLAG-tagged LEDGF/p75 ΔPWWP
[3] = target: LEDGF/p75 WT (Lens epithelium-derived growth factor/p75) (UniProt O75475)
[4] = target: LEDGF/p75 ΔPWWP (stably expressed in HEK293T-derived cells)

Substance	salt extraction assay, transient coexpression: NaCl needed to extract LEDGF/p75 WT from chromatin with integrase WT (250 mM without integrase) [1] [mM]	salt extraction assay, transient coexpression: NaCl needed for complete extraction of LEDGF/p75 ΔPWWP from chromatin with integrase WT (150 mM without integrase) [2] [mM]	salt extraction assay: percent of LEDGF/p75 WT extracted from chromatin at NaCl above 200 mM in cells co-expressing HIV-1 integrase (around 70% without integrase) [3] [%]	salt extraction assay: percent of LEDGF/p75 ΔPWWP extracted from chromatin at 100 mM and 150 mM NaCl in cells co-expressing HIV-1 integrase (30% and 70% without integrase) [4] [%]
Myc-eGFP-tagged HIV-1 integrase WT (enzyme)	> 300	> 200	–	–
Myc-tagged HIV-1 integrase (enzyme)	–	–	< 1	< 2
